Laboratory results from PMC4184033 (Nature structural & molecular biology, 2011).

T1: Mcm2 (Drosophila melanogaster, UniProt P49735 1-887)
T1 sequence (looked up): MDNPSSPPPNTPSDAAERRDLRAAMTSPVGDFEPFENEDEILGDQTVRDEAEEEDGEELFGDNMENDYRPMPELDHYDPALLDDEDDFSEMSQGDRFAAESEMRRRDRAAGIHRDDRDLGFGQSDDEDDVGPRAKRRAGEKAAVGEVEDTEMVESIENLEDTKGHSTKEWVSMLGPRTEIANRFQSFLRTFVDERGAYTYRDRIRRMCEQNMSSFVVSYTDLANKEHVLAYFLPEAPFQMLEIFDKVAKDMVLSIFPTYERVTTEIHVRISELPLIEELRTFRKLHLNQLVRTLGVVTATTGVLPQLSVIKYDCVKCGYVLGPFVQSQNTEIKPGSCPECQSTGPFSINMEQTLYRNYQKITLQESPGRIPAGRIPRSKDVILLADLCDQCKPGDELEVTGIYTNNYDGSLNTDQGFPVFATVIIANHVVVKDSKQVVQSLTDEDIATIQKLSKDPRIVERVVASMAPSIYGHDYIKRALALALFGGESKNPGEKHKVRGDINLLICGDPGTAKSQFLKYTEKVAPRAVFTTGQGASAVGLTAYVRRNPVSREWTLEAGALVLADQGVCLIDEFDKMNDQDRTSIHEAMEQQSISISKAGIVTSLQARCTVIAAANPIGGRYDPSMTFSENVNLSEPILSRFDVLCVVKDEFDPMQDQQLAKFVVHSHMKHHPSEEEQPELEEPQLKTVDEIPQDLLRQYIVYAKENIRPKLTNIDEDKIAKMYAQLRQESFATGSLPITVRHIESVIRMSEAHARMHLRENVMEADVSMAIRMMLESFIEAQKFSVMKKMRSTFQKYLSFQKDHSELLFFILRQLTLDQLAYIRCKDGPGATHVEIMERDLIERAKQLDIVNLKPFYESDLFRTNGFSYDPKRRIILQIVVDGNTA

T2: Mcm5 (Drosophila melanogaster, UniProt Q9VGW6 1-733)
T2 sequence (looked up): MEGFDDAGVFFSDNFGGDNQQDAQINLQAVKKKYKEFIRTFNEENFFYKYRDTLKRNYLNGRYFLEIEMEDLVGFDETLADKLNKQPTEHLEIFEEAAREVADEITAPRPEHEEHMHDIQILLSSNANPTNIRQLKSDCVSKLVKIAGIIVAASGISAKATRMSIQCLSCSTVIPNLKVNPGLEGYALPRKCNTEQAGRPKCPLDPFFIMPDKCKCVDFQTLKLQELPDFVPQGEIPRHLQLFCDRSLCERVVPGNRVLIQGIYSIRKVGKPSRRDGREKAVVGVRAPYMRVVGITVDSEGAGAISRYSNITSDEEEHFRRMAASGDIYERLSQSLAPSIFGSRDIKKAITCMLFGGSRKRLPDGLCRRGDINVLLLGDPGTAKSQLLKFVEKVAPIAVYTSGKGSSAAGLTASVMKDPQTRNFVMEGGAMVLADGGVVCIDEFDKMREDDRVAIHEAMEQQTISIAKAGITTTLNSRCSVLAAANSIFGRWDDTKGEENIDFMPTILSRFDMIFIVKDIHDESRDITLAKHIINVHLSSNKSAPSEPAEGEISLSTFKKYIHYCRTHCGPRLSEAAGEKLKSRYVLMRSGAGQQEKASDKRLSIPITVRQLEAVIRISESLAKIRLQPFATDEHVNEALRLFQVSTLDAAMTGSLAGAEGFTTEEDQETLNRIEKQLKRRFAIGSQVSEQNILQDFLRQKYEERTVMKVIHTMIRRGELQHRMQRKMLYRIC

B1: Cdc45 (natural protein, Drosophila melanogaster, UniProt O96989 1-575, looked up)
chain: MFVQDLRNDFYRQLVGKRILIVVNYDIDAICASRILQALFKYDHMLYTVVPIMGVTGLKRAYGEHQGDVKYVVLVNCGGCVDIVELLQPSDDVTFFICDSHRPLDVCNIYSDRQVCILGDASLEENIPAFETIFYDSEGEDEDEDESSDTEQQHDDSGAGESDQEDQAPRSRKLSRLERHEQRILKQRARRQWESERDRIMFEYTQFSYYGRSAALMVFELAWKLSKDNMDLLWWAIVGITEQLLLGKIESGAYTLELEQIQSHVSRLTNKTNDQNTMSASKITFENDLHLVLYRHWPVTESMRYSRYSSCQLKLWTLRGEKRLHELLLEMGLPLVHARQTYGAMDLVLRKEFFSMVERLAEKYDIADIVYGTFTLSYGYRSRYAAADYVYALLAIMESVKKHKTPEDCFLEASDALSRQHKQLLSAGIDQAKLLHAAVFRQVQSSLEARQVHSAGSFFYYVLQEEHAFFSYPYALGLLARFLLRGHVATSRARQASDLPLIASCPLNASEGMCLLVGIVPVREDSPRNFFGKAFEQAAQKSGVALLQDFFEPAVVQLRQSDLTRFLDSLTVLLA
B2: Psf2 (natural protein, Drosophila melanogaster, UniProt Q9VQY9 1-203, looked up)
chain: MDPSIIEFIGEKCMISIIPNFSNEPLHLIYGPVGPFRAGFPVFVPLWMATHLRKQQKCRIVPPEWMDMDILEEIKEEEKRSKFFTKMPCEHYMVVAQLVMSTAPDDVPRCEELRTVIKDIFDIRESKLRTSIDAFIKGEGTYAKLDNLTLLEIHSVRPILPYSLDHIARYQRTATASQRDTSMLSASMAGSSSGPNSNSLFSQ

Key:
Assay in all cases: negative-stain single-particle EM
Mcm2 = target: T1, Mcm2
Mcm5 = target: T2, Mcm5
Cdc45 = target: B1

Row | binding result (Mcm2) | binding result (Mcm5) | binding result (Cdc45) | Binder
1 | binds |  |  | B1
2 |  | binds | binds | B2
